The text below walks through data of publication PMC11878559.

This assay deals with StbD antitoxin of plasmid pHNSHP45 (p45), untagged (plasmid pHNSHP45 (p45), studied in E. coli). The experiment in a line: tricine-SDS-PAGE of the purified StbDE complex.

“StbD antitoxin of plasmid pHNSHP45 (p45), untagged (natural protein)”: the stoichiometry N came to 2.
